Measured values as given in US10434074B2, “Peptide and small molecule agonists of EPHA and uses thereof” (CASE WESTERN RESERVE UNIVERSITY, priority 2004, dated 2019).

Assays:
Akt and ERK = Akt and ERK activities in DU145 cells expressing WT or dominant negative EphA2; assay type: cell-based, human; conditions: DU145 with dominant negative EphA2
Description: (§1) FIGS. 46(A-D) illustrate A) EphA2 is overexpressed in osseous but not lymph node metastases of human prostate cancer specimens obtained from rapid autopsy. […] DU145 cells were infected with a retroviral vector expressing wild type (WT) or a dominant negative mutant EphA2 where the entire cytoplasmic tail was replaced with GFP. An antibody against the ectodomain of EphA2 was used to determine the expression of endogenous (vector control), WT- and DN-EphA2. D) Upregulation of EphA2 by Ras but not Myc oncogene in NRP152 normal rat prostate epithelial cells.
as §1, with “We observed that” for “FIGS. 46(A-D) illustrate A)”, “autopsy (FIG. 46A).” for “autopsy.”, “DN-EphA2 (FIG. 46C). We further observed upregulation” for “DN-EphA2. D) Upregulation”, “cells (FIG. 46D).” for “cells.”

DU-145 cells = assay: Wound healing assay; assay type: cell-based, human; conditions: 12 hours
Method: FIGS. 2(A-E) illustrate EphA activation inhibited DU-145 cell migration. (A) Expression of c-Met is elevated in cell lines derived from more malignant prostate cancer. Total cellular proteins were immunoblotted with anti-human c-Met. An anti-tubulin blot was used as a control for protein loading. (B) In a modified Boyden chamber assay, DU-145 cells were placed in the upper chamber and allowed to migrate to the lower chamber containing indicated reagents. After 8 hours, cells were stained with crystal violet and cells remaining in the upper chamber were removed. Top panel: Cells migrated to the undersides of membrane were counted; six high power fields were counted. Results represent means±S.D. Representative fields were shown in the lower panel. (C) Ephrin-A1-Fc inhibits DU-145 cell migration when HGF/SF was uniformly presented in both sides of membranes. The experiment was carried out as described in A. (D) Inhibition of cell scattering by immobilized ephrin-A1 in a SOIL assay (Method). Ephrin-A1-Fc or control Fc was immobilized on 6-well culture dishes. Freshly confluent DU-145 cells on cover slips were transferred to the coated surfaces. Cells were stimulated with HGF/SF to induce migration off the cover slips to immobilized Fc or ephrin-A1-Fc. […] The wound healing was recorded prior to and 12 hours after the addition of Fc, ephrin-A1-Fc (1 μg/ml) and/or HGF/SF (20 ng/ml). […]

primary keratinocytes = assay: Clonal growth of primary keratinocytes; assay type: cell-based, mouse
Method: FIGS. 43(A-C) illustrate EphA2 kinase is required for ephrin-A1-induced inhibition of ERK1/2 MAP kinase and growth suppression in primary keratinocytes. A) EphA kinase activation by ephrin-A1 in EphA2^+/+ and EphA2^+/− but not EphA2^−/− keratinocytes. Keratinocytes were isolated from newborn (P1) mice and cultured on matrigel-coated culture plates. They were stimulated with 1.0 μg/ml of ephrin-A1-Fc for 10 min. The unstimulated cells were used as control. EphA receptors including EphA2 were precipitated from the cell lysates using ephrin-A1-Fc, and were subjected to immunoblot analysis with rabbit polyclonal anti-phospho-EphA/B antibody. Membrane was stripped and blotted again for total EphA2. B) Ephrin-A1 stimulation leads to inactivation of ERK1/2 MAPK in EphA2^+/+ and EphA2^+/− but not EphA2^−/− keratinocytes. Total cell lysates were analyzed by immunoblot with the indicated antibodies. The band densities from p-ERK blot were normalized to the corresponding total ERK1 blot. The ratios of p-ERK between ephrin-A1-treated and untreated were shown in the lower panel. C). Ephrin-A1 stimulation inhibits clonal growth of EphA2^+/+ and EphA2^+/− but not EphA2^−/− keratinocytes. Primary keratinocytes were plated on 6-well plates coated with matrigel at 5,000 cells/well, and allowed to grow for 12 days in the presence of Fc (0.5 μg/ml) or ephrin-A1-Fc (1.0 μg/ml).

B1: ephrin-A1-Fc: ephrin-A1 dimerized by fusion to the heavy chain of human IgG1 (protein)
chain: DRHTVFWNSSNPKFRNEDYTIHVQLNDYVDIICPHYEDHSVADAAMEQYILYLVEHEEYQLCQPQSKDQVRWQCNRPSAKHGPEKLSEKFQRFTPFTLGKEFKEGHSYYYISKPIHQHEDRCLRLKVTVSGKITHSPQAHDNPQEKRLAADDPEVRVLHSIGHS
modifications: left off: a dimerising Fc or GST
notes: ephrin-A1 dimerized by fusion to the heavy chain of human IgG1
Akt and ERK activities (Akt and ERK): abolished the inhibitory effects
wound closing (DU-145 cells; vs Fc): slowed down the speed of wound closing
wound closing with HGF/SF (DU-145 cells; vs HGF/SF and Fc): the wound closing was also delayed
clonal growth (primary keratinocytes; EphA2 knockout keratinocytes): resistant to ephrin-A1-induced growth inhibition
clonal growth (primary keratinocytes; wild type and heterozygous, 1.0 μg/ml, 12 days): suppressed the growth of wild type and heterozygous keratinocytes
